From paper PMC10421056 (Science Advances, 2023)

B1: His-tagged histone H2A.X.3 (natural protein)
chain: MSSGAGSGTTKGGRGKPKATKSVSRSSKAGLQFPVGRIARFLKAGKYAERVGAGAPVYLSAVLEYLAAEVLELAGNAARDNKKTRIVPRHIQLAVRNDEELSKLLGSVTIANGGVLPNIHQTLLPSKVGKNKGDIGSASQEF
B2: His-tagged histone H2A.Z.9 (natural protein)
chain: not shown

Target: His-tagged histone H2B.9 (Arabidopsis, UniProt O23629 1-150)
Assay: reconstitution of histone heterodimers

Sequence of His-tagged histone H2B.9 (O23629 whole entry): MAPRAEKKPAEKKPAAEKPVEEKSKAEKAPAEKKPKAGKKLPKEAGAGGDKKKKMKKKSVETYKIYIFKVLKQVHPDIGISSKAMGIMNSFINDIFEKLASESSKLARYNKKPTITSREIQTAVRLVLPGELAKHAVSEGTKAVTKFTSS

| Binder | binding result |
| --- | --- |
| B1 | binds |
| B2 | binds |
